# Measured values from patent US20030199040A1 (IMMUNEX, published 2003).
# B1: hAcPL expressed on COS7 cells (receptor)
# chain: ERIKGFNISGCSTKKLLWTYSTRSEEEFVLFCDLPEPQKSHFCHRNRLSPKQVPEHLPFMGSNDLSDVQWYQQPSNGDPLEDIRKSYPHIIQDKCTLHFLTPGVNNSGSYICRPKMIKSPYDVACCVKMILEVKPQTNASCEYSASHKQDLLLGSTGSISCPSLSCQSDAQSPAVTWYKNGKLLSVERSNRIVVDEVYDYHQGTYVCDYTQSDTVSSWTVRAVVQVRTIVGDTKLKPDILDPVEDTLEVELGKPLTISCKARFGFERVFNPVIKWYIKDSDLEWEVSVPEAKSIKSTLKDEIIERNIILEKVTQRDLRRKFVCFVQNSIGNTTQSVQLKEKRGVVLLYILLGTIGTLVAVLAASALLYRHWIEIVLLYRTYQSKDQTLGDKKDFDAFVSYAKWSSFPSEATSSLSEEHLALSLFPDVLENKYGYSLCLLERDVAPGGVYAEDIVSIIKRSRRGIFILSPNYVNGPSIFELQAAVNLALDDQTLKLILIKFCYFQEPESLPHLVKKALRVLPTVTWRGLKSVPPNSRFWAKMRYHMPVKNSQGFTWNQLRITSRIFQWKGLSRTETTGRSSQPKEW
# Biological target: monkey IL-1Rrp1 endogenous to COS7 cells (monkey)
# Assay: cell-based or functional assay
binder,measurement,value
B1,increase in NFκB activity (NFκB-Luc reporter) in COS7 cells transfected with hAcPL alone and stimulated with hIL-18,8 fold
